Measured values published in patent US10280205B2, “Method for treating cancer with an activated T lymphocyte that selectively recognizes a cancer cell consisting of specific peptide” (immatics biotechnologies GmbH, priority 2015, dated 2019).

Target: HLA-A*02:01 (Homo sapiens, UniProt P04439, D140Y/D185E/D98H/E176V/E277Q/G131W/G231S/I119V/I121R/I166T/I218V/L300P/L318F/N151K/N90K/P208A/P217A/Q86G/Q94H/R138H/R169H/T345S)
Assay: MHC binding assay: UV-ligand exchange with beta2m ELISA (exchange yield)
Conditions: binding to HLA-A*02:01, β2m ELISA
Procedure, shortened: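 Peptide–HLA-A*02:01 complexes formed by UV-induced exchange of a photocleavable ligand for the test peptide. Exchange products diluted 100-fold and captured on streptavidin-coated plates. Stabilized complexes detected with HRP anti-β2m (1 h, 37° C.) and TMB, A450; exchange yield reported.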

| Substance | Peptide exchange (MHC class I binding score, peptide exchange yield) |
| --- | --- |
| 439 (YLLQEIYGI; listed as Homo sapiens) [compound 439] | “+++” (≥50 = +++) |
| 440 (ALADGVTMQV; listed as Homo sapiens) [compound 440] | “++” (≥20% = ++) |
| 441 (ALLENPKMEL; listed as Homo sapiens) [compound 441] | “+++” (≥50 = +++) |
| 442 (GLLGGGGVLGV; listed as Homo sapiens) [compound 442] | “+++” (≥50 = +++) |
| 444 (GLLRDEALAEV; listed as Homo sapiens) [compound 444] | “+++” (≥50 = +++) |
| 446 (QLIPALAKV; listed as Homo sapiens) [compound 446] | “+++” (≥50 = +++) |
| 447 (QLVPALAKV; listed as Homo sapiens) [compound 447] | “++” (≥20% = ++) |
| 448 (NLLETKLQL; listed as Homo sapiens) [compound 448] | “+++” (≥50 = +++) |
| 449 (KLAEGLDIQL; listed as Homo sapiens) [compound 449] | “+++” (≥50 = +++) |
| 450 (FMIDASVHPTL; listed as Homo sapiens) [compound 450] | “+++” (≥50 = +++) |
| 451 (LLLLDTVTMQV; listed as Homo sapiens) [compound 451] | “++” (≥20% = ++) |
| 452 (ILLEHGADPNL; listed as Homo sapiens) [compound 452] | “+++” (≥50 = +++) |
| 453 (KLLEATSAV; listed as Homo sapiens) [compound 453] | “++” (≥20% = ++) |
| 454 (KLPPPPPQA; listed as Homo sapiens) [compound 454] | “+++” (≥50 = +++) |
| 455 (SLLKEPQKVQL; listed as Homo sapiens) [compound 455] | “++” (≥20% = ++) |
| 456 (LLIGHLERV; listed as Homo sapiens) [compound 456] | “+++” (≥50 = +++) |
| 457 (SLLPGNLVEKV; listed as Homo sapiens) [compound 457] | “+++” (≥50 = +++) |
| 458 (SLIDKLYNI; listed as Homo sapiens) [compound 458] | “++” (≥20% = ++) |
| 459 (ALITEVVRL; listed as Homo sapiens) [compound 459] | “++” (≥20% = ++) |
| 461 (VMFRTPLASV; listed as Homo sapiens) [compound 461] | “++” (≥20% = ++) |
| 462 (KLAKQPETV; listed as Homo sapiens) [compound 462] | “+++” (≥50 = +++) |
| 463 (SLVESHLSDQLTL; listed as Homo sapiens) [compound 463] | “+++” (≥50 = +++) |

| Substance | Peptide exchange (MHC class I binding score, peptide exchange yield) |
| --- | --- |
| 464 (ALNDCIYSV; listed as Homo sapiens) [compound 464] | “+++” (≥50 = +++) |
| 465 (QLCDLNAEL; listed as Homo sapiens) [compound 465] | “+++” (≥50 = +++) |
| 466 (VLIANLEKL; listed as Homo sapiens) [compound 466] | “++++” (≥75% = ++++) |
| 467 (FLAKDFNFL; listed as Homo sapiens) [compound 467] | “+++” (≥50 = +++) |
| 468 (YLRSVGDGETV; listed as Homo sapiens) [compound 468] | “+++” (≥50 = +++) |
| 469 (YLASDEITTV; listed as Homo sapiens) [compound 469] | “+++” (≥50 = +++) |
| 471 (YLYNNMIAKI; listed as Homo sapiens) [compound 471] | “+++” (≥50 = +++) |
| 472 (KLLEVSDDPQV; listed as Homo sapiens) [compound 472] | “+++” (≥50 = +++) |
| 473 (AMATESILHFA; listed as Homo sapiens) [compound 473] | “+++” (≥50 = +++) |
| 474 (YLDPALELGPRNV; listed as Homo sapiens) [compound 474] | “+++” (≥50 = +++) |
| 475 (LLLNEEALAQI; listed as Homo sapiens) [compound 475] | “+++” (≥50 = +++) |
| 476 (ALMERTGYSMV; listed as Homo sapiens) [compound 476] | “+++” (≥50 = +++) |
| 477 (ALLPASGQIAL; listed as Homo sapiens) [compound 477] | “+++” (≥50 = +++) |
| 478 (YLLHEKLNL; listed as Homo sapiens) [compound 478] | “+++” (≥50 = +++) |
| 479 (SLFGNSGILENV; listed as Homo sapiens) [compound 479] | “+++” (≥50 = +++) |
| 480 (ALLEDSCHYL; listed as Homo sapiens) [compound 480] | “+++” (≥50 = +++) |
| 481 (GLIEDYEALL; listed as Homo sapiens) [compound 481] | “+++” (≥50 = +++) |
| 484 (SLIEKVTQL; listed as Homo sapiens) [compound 484] | “+++” (≥50 = +++) |
| 485 (NVPDSFNEV; listed as Homo sapiens) [compound 485] | “+++” (≥50 = +++) |
| 486 (AVMESIQGV; listed as Homo sapiens) [compound 486] | “+++” (≥50 = +++) |
| 487 (LLINSVFHV; listed as Homo sapiens) [compound 487] | “+++” (≥50 = +++) |
| 488 (FLAEDPKVTL; listed as Homo sapiens) [compound 488] | “+++” (≥50 = +++) |

| Substance | Peptide exchange (MHC class I binding score, peptide exchange yield) |
| --- | --- |
| 490 (FLLQHVQEL; listed as Homo sapiens) [compound 490] | “+++” (≥50 = +++) |
| 491 (GLNDRSDAV; listed as Homo sapiens) [compound 491] | “++” (≥20% = ++) |
| 492 (SLFDGFADGLGV; listed as Homo sapiens) [compound 492] | “+++” (≥50 = +++) |
| 493 (GLLGEKTQDLIGV; listed as Homo sapiens) [compound 493] | “+++” (≥50 = +++) |
| 494 (ALQPEPIKV; listed as Homo sapiens) [compound 494] | “++” (≥20% = ++) |
| 495 (FIFSEKPVFV; listed as Homo sapiens) [compound 495] | “+++” (≥50 = +++) |
| 496 (FLVEKQPPQV; listed as Homo sapiens) [compound 496] | “+++” (≥50 = +++) |
| 497 (GLLEKLTAI; listed as Homo sapiens) [compound 497] | “+++” (≥50 = +++) |
| 498 (KLWTGGLDNTV; listed as Homo sapiens) [compound 498] | “+++” (≥50 = +++) |
| 500 (SLMEDQVLQL; listed as Homo sapiens) [compound 500] | “+++” (≥50 = +++) |
| 501 (LLDPNVKSIFV; listed as Homo sapiens) [compound 501] | “+++” (≥50 = +++) |
| 502 (RLLAQVPGL; listed as Homo sapiens) [compound 502] | “+++” (≥50 = +++) |
| 503 (SLNHFTHSV; listed as Homo sapiens) [compound 503] | “+++” (≥50 = +++) |
| 504 (GLSDGNPSL; listed as Homo sapiens) [compound 504] | “++” (≥20% = ++) |
| 505 (SLAPGDVVRQV; listed as Homo sapiens) [compound 505] | “++” (≥20% = ++) |
| 506 (KLLGKVETA; listed as Homo sapiens) [compound 506] | “+++” (≥50 = +++) |
| 507 (KLIDDQDISISL; listed as Homo sapiens) [compound 507] | “+++” (≥50 = +++) |
| 508 (ILAQEQLVVGV; listed as Homo sapiens) [compound 508] | “+++” (≥50 = +++) |
| 509 (FLFDTKPLIV; listed as Homo sapiens) [compound 509] | “+++” (≥50 = +++) |
| 510 (KLYSVVSQL; listed as Homo sapiens) [compound 510] | “++” (≥20% = ++) |
| 512 (SLSEIVPCL; listed as Homo sapiens) [compound 512] | “+++” (≥50 = +++) |
| 513 (SLWPSPEQL; listed as Homo sapiens) [compound 513] | “++” (≥20% = ++) |
